This is an account of results in US20220048996A1 (F STAR BETA, published 2022).

Assay [1] has as its target T1, cynomolgus CD137 expressed on DO11.10 cells (DO11.10-cCD137) (cynomolgus monkey, UniProt Q07011 24-255 (human entry)).
T1 chain: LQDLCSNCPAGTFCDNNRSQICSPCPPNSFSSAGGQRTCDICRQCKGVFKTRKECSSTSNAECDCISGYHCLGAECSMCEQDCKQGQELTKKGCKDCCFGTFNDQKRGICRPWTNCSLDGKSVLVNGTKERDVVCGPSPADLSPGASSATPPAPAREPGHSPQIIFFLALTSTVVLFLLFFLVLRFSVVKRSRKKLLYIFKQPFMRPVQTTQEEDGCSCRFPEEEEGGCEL
As to the kind of experiment: flow cytometry on DO11.10 cells expressing the target. The method, then: (§1) 50 μl of the antibody dilutions were added to the wells containing cells (final volume 100 μl) and incubated at 4° C. for 1 hour. […] The plates were washed and resuspended in 100 μl of PBS containing DAPI (Biotium, cat no 40043) at 1 μg/ml. The plates were analysed using a Canto II flow cytometer (BD Bioscience) and the data analysed using FlowJo. Dead cells were identified by their higher fluorescence on the UV (405 nm/450/50) channel and excluded from analysis. […] The GMFI data was fit using log (agonist) vs response (three parameters) in Graph Pad Prism Software to generate EC₅₀ values.
A general note: Flow cytometry measures light scatter and fluorescence of single cells or particles in a stream.

Assay [2] addresses T2, human CD137 expressed on DO11.10 cells (DO11.10-hCD137) (human, UniProt Q07011 24-255).
T2 construct: also called CD137 on human T cells
The description is as above. The method, then: as §1

Assay [3] deals with T3, mouse CD137 expressed on DO11.10 cells (DO11.10-mCD137) (mouse, UniProt P20334 24-256).
T3 construct: also called CD137 on mouse T cells
The assay is described as above. The protocol:
as §1, with “The binding affinity of the FS20m-232-91AA/Lob12.3 mAb² for cell-expressed mouse OX40 and CD137 was determined using flow cytometry. […] DO11.10-mOX40, DO11.10-mCD137, or HEK cell suspensions were prepared in PBS+2% BSA (Sigma, A7906) and seeded at 4×10⁶ cell/ml with 50 μl/well in V-bottomed 96-well plates (Costar, 3897). 50 μl” for “50 μl”, “volume 100 μl ) and incubated” for “volume 100 μl) and incubated”, “parameters) in GraphPad Prism Software” for “parameters) in Graph Pad Prism Software”

For assay [4], the target named is T4, mouse OX40 expressed on DO11.10 cells (DO11.10-mOX40) (mouse, UniProt P47741 20-272).
T4 construct: Also used here for OX40 on primary mouse T cells in the functional rows; also called OX40 on mouse T cells
T4 sequence: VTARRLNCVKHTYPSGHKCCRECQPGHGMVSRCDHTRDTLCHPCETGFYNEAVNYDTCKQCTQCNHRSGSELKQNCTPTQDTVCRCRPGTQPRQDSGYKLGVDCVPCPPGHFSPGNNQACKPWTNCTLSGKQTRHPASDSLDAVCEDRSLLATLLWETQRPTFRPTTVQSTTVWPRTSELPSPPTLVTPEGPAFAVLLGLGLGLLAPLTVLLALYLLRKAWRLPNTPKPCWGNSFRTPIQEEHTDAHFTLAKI
The assay is described as above. The method, then: as §1, with “The binding affinity of the FS20m-232-91AA/Lob12.3 mAb² for cell-expressed mouse OX40 and CD137 was determined using flow cytometry. […] DO11.10-mOX40, DO11.10-mCD137, or HEK cell suspensions were prepared in PBS+2% BSA (Sigma, A7906) and seeded at 4×10⁶ cell/ml with 50 μl/well in V-bottomed 96-well plates (Costar, 3897). 50 μl” for “50 μl”, “volume 100 μl ) and incubated” for “volume 100 μl) and incubated”, “parameters) in GraphPad Prism Software” for “parameters) in Graph Pad Prism Software”

Assay [5] deals with T5, hCD137-mFc-Avi (human).
T5 construct: Dimer; a biotinylated version was used where the text says so; also called human CD137-mFc-Avi; hCD137-mFc-Avi-Bio
The assay is described as follows: SPR, mAb^2 at 1 nM on CD137 against 1 µM on related receptors. From the text:
CD137 and OX40 belongs to the tumour necrosis factor receptor superfamily (TNFRSF) of cytokine receptors (Moran et al., 2013).
Briefly, flow cells on CM5 chips were immobilised with approx. 1000 RU of either human CD137-mFc-Avi (Table 3), OX40-mFc (Table 2), recombinant human TNFRSF1A-Fc, recombinant human TNFRSF1B-Fc, recombinant human GITR-Fc, recombinant human NGFR-Fc, recombinant human CD40-Fc or recombinant human DR6-Fc. Flow cell 1 was left for blank immobilisation. The five mAb² were diluted to 1 μM and 1 nM in 1×HBS-EP buffer (GE Healthcare, product code BR100188), allowed to flow over the chip for 3 min and then allowed to dissociate for 4 minutes. A 30-second injection of 10 mM glycine pH 1.5 was used for regeneration. […] Binding levels were determined at the end of the association phase and compared.
In general terms: In SPR one partner is held on a chip, and binding of the other changes the refractive index at the surface.

For assay [6], the target named is T5, hCD137-mFc-Avi. As to the kind of experiment: SPR, antigen immobilised on CM5, mAb^2 at 1 nM and 1 µM.
The next assay has as its target T6, hOX40-mFc (human).
T6 construct: Dimeric; also called human OX40-mFc
T6 chain: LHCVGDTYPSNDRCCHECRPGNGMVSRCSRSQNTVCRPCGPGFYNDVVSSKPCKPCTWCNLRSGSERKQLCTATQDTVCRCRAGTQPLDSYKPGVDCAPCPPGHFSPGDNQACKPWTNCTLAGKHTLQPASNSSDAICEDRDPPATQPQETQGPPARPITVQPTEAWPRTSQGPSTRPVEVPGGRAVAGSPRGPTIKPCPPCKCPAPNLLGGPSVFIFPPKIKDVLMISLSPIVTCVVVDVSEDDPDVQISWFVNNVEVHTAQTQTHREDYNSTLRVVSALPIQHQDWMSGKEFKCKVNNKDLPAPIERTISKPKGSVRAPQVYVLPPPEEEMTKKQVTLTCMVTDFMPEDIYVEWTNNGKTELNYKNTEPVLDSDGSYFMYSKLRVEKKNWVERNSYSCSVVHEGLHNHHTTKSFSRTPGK
The description is as above.

Assay [7] addresses T2, human CD137 expressed on DO11.10 cells …. As to the kind of experiment: cell-based or functional assay.
Target sequence in this assay (Q07011 24-255): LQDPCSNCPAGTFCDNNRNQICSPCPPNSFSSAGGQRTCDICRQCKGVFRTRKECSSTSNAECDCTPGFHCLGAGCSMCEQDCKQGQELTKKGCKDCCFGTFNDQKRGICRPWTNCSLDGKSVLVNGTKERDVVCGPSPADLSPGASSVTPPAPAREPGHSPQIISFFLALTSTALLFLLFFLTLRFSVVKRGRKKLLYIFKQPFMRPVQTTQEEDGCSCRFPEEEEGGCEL
Assay [8] addresses T7, human OX40 expressed on DO11.10 cells (DO11.10-hOX40) (human, UniProt P43489 29-277).
T7 sequence: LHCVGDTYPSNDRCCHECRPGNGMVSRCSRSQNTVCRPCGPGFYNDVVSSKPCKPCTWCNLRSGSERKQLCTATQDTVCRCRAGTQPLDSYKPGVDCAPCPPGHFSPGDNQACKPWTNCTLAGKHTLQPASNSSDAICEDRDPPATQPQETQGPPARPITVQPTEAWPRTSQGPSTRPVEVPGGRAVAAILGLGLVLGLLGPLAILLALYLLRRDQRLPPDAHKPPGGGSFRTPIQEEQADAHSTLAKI
As to the kind of experiment: cell-based or functional assay.

Assay [9] concerns the target T4, mouse OX40 expressed on DO11.10 cells …. The assay is described as follows: flow cytometry, fluorescently-labelled antibody on DO11.10-mOX40.

Where a chain is given by its changes, count along the chain named. A value given as a limit tells only on which side of the number the result lay.

T5 sequence (chain, as listed by the source limits assumed): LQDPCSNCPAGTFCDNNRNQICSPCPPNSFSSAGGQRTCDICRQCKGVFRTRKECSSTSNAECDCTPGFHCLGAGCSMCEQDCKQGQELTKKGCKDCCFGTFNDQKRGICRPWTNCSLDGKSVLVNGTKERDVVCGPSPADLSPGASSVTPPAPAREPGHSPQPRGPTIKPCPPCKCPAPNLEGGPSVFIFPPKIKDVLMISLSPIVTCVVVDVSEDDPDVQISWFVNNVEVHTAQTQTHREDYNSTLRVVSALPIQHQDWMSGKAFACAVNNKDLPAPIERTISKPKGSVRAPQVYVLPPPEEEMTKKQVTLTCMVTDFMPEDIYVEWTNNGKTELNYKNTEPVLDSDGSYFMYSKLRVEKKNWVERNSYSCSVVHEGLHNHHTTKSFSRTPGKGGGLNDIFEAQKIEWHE
T3 sequence (P20334 24-256): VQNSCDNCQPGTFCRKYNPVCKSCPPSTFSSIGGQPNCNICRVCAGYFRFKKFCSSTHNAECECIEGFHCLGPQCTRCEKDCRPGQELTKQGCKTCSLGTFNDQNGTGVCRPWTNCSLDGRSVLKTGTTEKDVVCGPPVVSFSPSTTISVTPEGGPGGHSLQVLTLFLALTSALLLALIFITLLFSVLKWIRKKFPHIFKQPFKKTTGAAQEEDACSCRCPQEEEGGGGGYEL

B1: G1/4420 (antibody, human IgG1, kappa)
heavy: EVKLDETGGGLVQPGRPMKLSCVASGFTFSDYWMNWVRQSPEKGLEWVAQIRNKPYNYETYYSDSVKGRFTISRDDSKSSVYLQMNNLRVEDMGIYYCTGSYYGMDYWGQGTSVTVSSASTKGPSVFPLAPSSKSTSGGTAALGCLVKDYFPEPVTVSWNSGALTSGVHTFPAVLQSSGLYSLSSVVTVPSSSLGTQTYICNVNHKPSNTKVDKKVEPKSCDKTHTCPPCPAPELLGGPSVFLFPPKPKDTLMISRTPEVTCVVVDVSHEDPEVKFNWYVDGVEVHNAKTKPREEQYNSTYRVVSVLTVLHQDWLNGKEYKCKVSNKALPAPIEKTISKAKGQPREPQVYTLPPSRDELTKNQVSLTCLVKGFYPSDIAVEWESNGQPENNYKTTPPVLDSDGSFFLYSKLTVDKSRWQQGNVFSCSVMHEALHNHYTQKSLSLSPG
light: DVVMTQTPLSLPVSLGDQASISCRSSQSLVHSNGNTYLRWYLQKPGQSPKVLIYKVSNRFSGVPDRFSGSGSGTDFTLKISRVEAEDLGVYFCSQSTHVPWTFGGGTKLEIKRTVAAPSVFIFPPSDEQLKSGTASVVCLLNNFYPREAKVQWKVDNALQSGNSQESVTEQDSKDSTYSLSSTLTLSKADYEKHKVYACEVTHQGLSSPVTKSFNRGEC
notes: also called anti-FITC antibody 4420 in IgG1 format; isotype control
For B1, the binding result in [1], in [2], in [3] and in assay [4] was “no binding” in each case.

B2: FS20-22-49AA/FS30-35 (bispecific antibody, V domains shown)
VH: EVQLLESGGGLVQPGGSLRLSCAASGFTFSAYNIHWVRQAPGKGLEWVSDISPYGGATNYADSVKGRFTISRDNSKNTLYLQMNSLRAEDTAVYYCARNLYELSAYSYGMDYWGQGTLVTVSS
VL: EIVLTQSPGTLSLSPGERATLSCRASQSVSSSYLAWYQQKPGQAPRLLIYGASSRATGIPDRFSGSGSGTDFTLTISRLEPEDFAVYYCQQYYYSSPITFGQGTKVEIKR
notes: Parent mAb^2; derived by reversing the stated change
Consider B2, for which the “specificity for CD137 over TNFRSF1A, TNFRSF1B, GITR, NGFR and CD40 (fold)” value with hCD137-mFc-Avi [5] was around 1000 fold.

B3: FS20-22-49AA/FS30-35-14 (bispecific antibody, human IgG1, kappa, L234A L235A, V domains shown)
VH: B2 VH with M110A
VL: B2 VL
notes: IgG1 with LALA; also called OX40/CD137 mAb^2
On to B3, for which the binding result with hCD137-mFc-Avi [6] is “binds”. Moreover, in the assay with hOX40-mFc, the binding result is recorded as “binds”. Besides, in assay [7], the “EC50 of mIL-2 release, DO11.10-hCD137 assay, crosslinked” value turned out to be 5.1 nM and the “Emax of mIL-2 release, DO11.10-hCD137 assay, crosslinked” value stood at 19800 pg/mL. In assay [8], the “SEA assay (PBMC), hIL-2 max response, crosslinked” value is 32200 pg/mL; the “SEA assay (PBMC), hIL-2 max response, no crosslinker” value was 32400 pg/mL; the “SEA assay (PBMC), hIL-2 release EC50, crosslinked” value stood at 0.14 nM; the “SEA assay (PBMC), hIL-2 release EC50, no crosslinker” value amounted to 0.09 nM.

B4: FS20-22-49AA/FS30-10 (bispecific antibody, V domains shown)
VH: EVQLLESGGGLVQPGGSLRLSCAASGFTFSSYDMSWVRQAPGKGLEWVSDIDPTGSKTDYADSVKGRFTISRDNSKNTLYLQMNSLRAEDTAVYYCARDLMVYGFDYWGQGTLVTVSS
VL: EIVLTQSPGTLSLSPGERATLSCRASQSVSSSYLAWYQQKPGQAPRLLIYGASSRATGIPDRFSGSGSGTDFTLTISRLEPEDFAVYYCQQSYSYPVTFGQGTKVEIKR
notes: as for B2
Take B4: the “specificity for CD137 over TNFRSF1A, TNFRSF1B, GITR, NGFR and CD40 (fold)” value with hCD137-mFc-Avi [5] is around 1000 fold.

B5: antibody OX86 (Biolegend cat no 119408) (antibody, V domains shown)
VH: QVQLKESGPGLVQPSQTLSLTCTVSGFSLTGYNLHWVRQPPGKGLEWMGRMRYDGDTYYNSVLKSRLSISRDTSKNQVFLKMNSLQTDDTAIYYCTRDGRGDSFDYWGQGVMVTVSS
VL: DIVMTQGALPNPVPSGESASITCRSSQSLVYKDGQTYLNWFLQRPGQSPQLLTYWMSTRASGVSDRFSGSGSGTYFTLKISRVRAEDAGVYYCQQVREYPFTFGSGTKLEIK
Regarding B5, the “fluorescence over non-transduced cells (fold)” value in [9] is at least 10 fold.
